In test [1] the target is C-terminal domain of Clostridium perfringens enterotoxin (cCpE), tagless (Clostridium perfringens, UniProt P01558).
The target in test [2] is T1, mouse claudin-4, biotinylated (mmCLDN-4-Biotin) (mouse, UniProt O35054 1-210).
T1 sequence: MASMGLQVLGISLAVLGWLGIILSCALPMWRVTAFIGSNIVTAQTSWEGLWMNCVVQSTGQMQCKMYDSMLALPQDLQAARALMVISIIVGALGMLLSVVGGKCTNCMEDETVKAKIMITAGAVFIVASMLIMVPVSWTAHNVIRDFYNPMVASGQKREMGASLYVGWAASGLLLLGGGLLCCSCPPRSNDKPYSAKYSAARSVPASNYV
In words: BLI. For orientation: In BLI a coated tip is dipped into the sample, and binding shifts an interference pattern.

In test [3] the target is T2, human claudin-9, biotinylated (hsCLDN-9-Biotin) (human, UniProt O95484).
T2 sequence: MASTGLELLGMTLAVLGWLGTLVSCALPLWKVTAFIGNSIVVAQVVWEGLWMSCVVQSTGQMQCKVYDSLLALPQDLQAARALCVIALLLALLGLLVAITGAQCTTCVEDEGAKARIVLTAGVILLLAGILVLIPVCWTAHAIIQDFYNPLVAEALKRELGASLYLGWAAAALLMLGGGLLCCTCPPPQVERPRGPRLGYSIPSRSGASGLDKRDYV
In words: BLI.

Test [4] has as its target T3, human claudin-4, biotinylated (hsCLDN-4-Biotin) (human, UniProt O14493 1-209).
T3 sequence: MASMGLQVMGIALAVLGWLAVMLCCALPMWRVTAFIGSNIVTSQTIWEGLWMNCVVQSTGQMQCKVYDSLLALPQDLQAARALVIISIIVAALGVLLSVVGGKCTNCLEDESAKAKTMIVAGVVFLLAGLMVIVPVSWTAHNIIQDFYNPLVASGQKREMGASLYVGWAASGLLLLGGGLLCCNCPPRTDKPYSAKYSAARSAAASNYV
The test is described as follows: BLI.

Among the data in paper doi:10.1101/2023.06.12.544689 (bioRxiv, 2023) are binding result and Kd values, retold here.

As a reminder, the Kd is the free concentration of one partner at which half of the binding sites on the other are occupied at equilibrium, for simple one-to-one binding.

B1: COP-3 (antibody, V domains shown)
VH: EVQLVESGGGLVQPGGSLRLSCAASGFNFYSSSIHWVRQAPGKGLEWVAYISSYSGYTYYADSVKGRFTISADTSKNTAYLQMNSLRAEDTAVYYCARGYGYFDYNFSVGYALDYWGQGTLVTVSS
VL: DIQMTQSPSSLSASVGDRVTITCRASQSVSSAVAWYQQKPGKAPKLLIYSASSLYSGVPSRFSGSRSGTDFTLTISSLQPEDFATYYCQQSHPWYYPITFGQGTKVEIK
As for B1, the binding result in test [1] is “binds”.

B2: cCpE-His10 (domain or fragment)
chain: STDIEKEILDLAAATERLNLTDALNSNPAGNLYDWRSSNSYPWTQKLNLHLTITATGQKYRILASKIVDFNIYSNNFNNLVKLEQSLGDGVKDHYVDISLDAGQYVLVMKANSSYSGNYPYSILFQKF
For the molecule B2, the Kd in test [2], in test [3] and in test [4] was less than 12 nM in each case.
